Results from patent US20190002846A1, “POLYPEPTIDES HAVING DEMETHYLATING ACTIVITY” (Genencor International B.V., priority 2015, published 2019).

Tests used:
[1] = Demethylation of syringic acid (GC methanol, UHPLC/MSMS); format: biochemical
Method: Syringic acid (12 mM, 2.38 g/L) was incubated with PPO7 from Example 2 (1.2 μM, 0.048 g/L, 2% loading (w/w)) in 50 mM BisTris buffer pH 6.5 with 10 μM CuSO4. Blank prepared without the addition of enzyme was included. Incubations were performed in GC headspace vials with a total of 1 mL reaction volume in duplicate at room temperature for approximately 90 h. The reaction was stopped by adding 28 μL 1M HCl to lower the pH to ˜3. One of the replicates was analyzed by GC for the methanol formation. A calibration range of 0.23 to 11.6 mM methanol in buffer with HCl was included. The second replicate was analyzed using UHPLC and the formation 3,4-dihydroxy-5-methoxybenzoic acid was confirmed using MSMS (see FIG. 5).

[2] = Methanol formation by GC, lignin; format: biochemical; conditions: enzyme 0.5 g/L, 25° C., approx. 48 h
Method: (§1) Model compounds syringic acid, syringol, 1,3-dimethoxybenzene and 3,5-dimethoxybenzoic acid (12 mM) were incubated with PPO7 from Example 2 (2% loading (w/w)) in 50 mM BisTris buffer pH 6.5 with 10 μM CuSO4. For syringic acid and syringol PPO2 from Example 2 was included as a control. Lignin and lignin-derived compounds (10 g/L) were incubated with PPO7 from Example 2 (0.5 g/L, 5% loading (w/w)). PPO2 from Example 2 was included as a control and incubated using the same conditions. Blanks prepared without the addition of enzyme were included. Incubations were performed in GC headspace vials with a total of 1 mL reaction volume at 25° C. for approximately 48 h while shaking. The reaction was stopped by adding 28 μL 1M HCl to lower the pH to ˜3. Samples were analyzed by GC for methanol formation. A calibration range of 0.23 to 11.5 mM methanol in buffer with HCl was included.

[3] = Methanol formation by GC, summary statement for lignin and lignin-derived compounds; format: biochemical; conditions: lignin and lignin-derived compounds 10 g/L, enzyme 0.5 g/L
Method: as §1

[4] = Methanol formation by GC, model compound; format: biochemical; conditions: for methanol: 2% enzyme loading, approx. 48 h
Method: as §1

[5] = Methanol formation by GC, lignin-derived compound; format: biochemical; conditions: enzyme 0.5 g/L, 25° C., approx. 48 h
Method: as §1

[6] = Conversion of syringic acid, sinapic acid and syringol by crude PPOs, absorbance at 400 nm; format: biochemical; conditions: 4 mM substrate, crude PPO 8.2 μg/mL, pH 6.0 or 7.0, 50 μM CuSO4, room temperature, 2, 22 and 118 h
Method: Syringic acid, sinapic acid and syringol (4 mM) were incubated with crude PPO2, 4, 6 and 7 from Example 5 in 100 mM BisTris buffer pH 6.0 or 7.0 with 50 μM CuSO4. Crude PPOs were dosed on target protein with a final concentration of 8.2 μg/mL. Substrate blanks prepared without the addition of enzyme and enzyme blanks without the addition of substrate were included. Incubations were performed in microtiterplates with a total reaction volume of 150 μL at room temperature for approximately 120 h. After 2, 22 and 118 h absorbance at 400 nm was measured.

[7] = biological target: T1, RAC incubated with LPMO9B (Thermothelomyces thermophilus, UniProt G2QCJ3); experiment: RAC hydrolysis assay with LPMO9B and PPO7 or AbTyr in the presence of phenolic reducing agents; format: biochemical, Myceliophthora thermophila; conditions: LPMO9B alone = 100%, or with added enzyme, pH 5.0, 50° C., 24 h
T1 construct: made in house; host or cells: Myceliophthora thermophila C1 strain W1L#100.1Δpyr5ΔAlp1
T1 sequence (G2QCJ3 19-323): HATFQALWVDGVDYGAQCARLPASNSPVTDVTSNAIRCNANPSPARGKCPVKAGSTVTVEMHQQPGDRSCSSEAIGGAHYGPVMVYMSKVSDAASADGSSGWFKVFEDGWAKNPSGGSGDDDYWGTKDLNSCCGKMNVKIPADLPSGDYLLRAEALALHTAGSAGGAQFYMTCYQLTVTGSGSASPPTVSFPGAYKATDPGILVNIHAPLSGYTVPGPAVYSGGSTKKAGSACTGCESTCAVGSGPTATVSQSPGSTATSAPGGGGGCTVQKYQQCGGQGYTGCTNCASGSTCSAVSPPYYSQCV
Method: Phenolic reducing agents were obtained from Sigma-Aldrich (St. Louis, Mo., USA). RAC was prepared as described above and dissolved in 50 mM phospate buffer (pH 5.0) to a final concentration of 1.5 mg/ml. Copper chloride was added to a final concentration of 2.5 μM and a phenolic reducing agent to a final concentration of 2 mM. LPMO9B (5 μg/ml) with or without PPO7 (5 μg/ml) or AbTyr (7.5 U/ml) were added and incubated for 24 h at 50° C. in a head-over-tail rotator in portions of 1 mL total volume (Stuart® rotator, Bibby Scientific LTD, Stone, UK) at 20 rpm. Products were analysed by HPAEC and MALDI-TOF MS as described previously. (Frommhagen M, Sforza S, Westphal A H, Visser J, Hinz S W, Koetsier M J et al. Discovery of the combined oxidative cleavage of plant xylan and cellulose by a new fungal polysaccharide monooxygenase. Biotechnology for Biofuels. 2015; 8:101. doi:10.1186/s13068-015-0284-1). The Activity denoted as Activity * represents total release of non-oxidized and C1-oxidized gluco-oligosaccharides from RAC incubated with LPMO9B in the presence of a phenolic reducing agent and with addition of either AbTyr or PPO7. […] Standard deviations were less than 2%.

[8] = 12 mM syringic acid, enzyme 0.048 g/L, pH 6.5, 10 μM CuSO4, room temperature, approx. 90 h, blank 0

B1: PPO7: Myceliophthora thermophila C1 polyphenoloxidase with demethylating activity, mature form SEQ ID NO: 45 (protein, listed as Myceliophthora thermophila)
chain: NPMHKRWKPNAPRNPDFPLDEVDKLEESIMPNVEAWMSKRPAKYSNCTLENAGIRREWSDLSVDERKEYISAVLCLQSKPSKIPEGEVPGALSRFDDFVATHMTMAGQLHSPTNLFAAHRYFIHAYEKALREECGYKGYQPYMNYDRYADDPLNTPLFDGSDSSMSGNGGPYNYSGIPQPFPKPYNLIPPAGGGGCVTEGPFRDMVVSLGPKGGLFHDIPRNPRADGLGSNPRCLRRDVNKYSARGARANYTYSAIMDNPDIDSFYNRYMGMPQLKGDPYPWGLHSSGHYLIGGDPGGDFYCSPGDPLFYFHHGMLDRVWWIWQMQDPENRVQAVPGTNTMPMPPLMAANLESEAAATTTHKRAVNVSDLVVDLGWTAPPVKLVDLNEQLGGLGGELCYIYV
**Q.** With B1 as the molecule, how does the “3,4-dihydroxy-5-methoxybenzoic acid concentration (UHPLC)” value [1, 8] read?
**A.** 1.61 mM

**Q.** What about the “methanol concentration (GC)” value [1, 8] of the same molecule?
**A.** 4.84 mM

**Q.** And the “syringic acid concentration (UHPLC)” value ([1]; 12 mM syringic acid, enzyme 0.048 g/L, pH 6.5, 10 μM CuSO4, room temperature, approx. 90 h, blank 10.86)?
**A.** 3.02 mM

**Q.** And the “Demethylation of syringic acid (in words)” value ([1]; formation of 3,4-dihydroxy-5-methoxybenzoic acid and methanol)?
**A.** catalyzed the demethylation of syringic acid

**Q.** And the methanol ([2]; Corn stover BioLignin 10 g/L, blank 0)?
**A.** 0.27 mM

**Q.** What about the methanol ([2]; Wheat straw BioLignin 10 g/L, blank 0.10) of the same molecule?
**A.** 0.28 mM

**Q.** What about the “Methanol concentration compared to the blank (in words)” value [3] of the same molecule?
**A.** increased methanol concentration compared to the blank

**Q.** What about the “Methanol release (in words)” value ([4]; 1,3-dimethoxybenzene) of the same molecule?
**A.** no methanol release

**Q.** And the methanol ([4]; 1,3-dimethoxybenzene 12 mM, 25° C., blank 0)?
**A.** 0 mM

**Q.** What about the “Methanol release (in words)” value ([4]; 3,5-dimethoxybenzoic acid) of the same molecule?
**A.** no methanol release

**Q.** What about the methanol ([4]; 3,5-dimethoxybenzoic acid 12 mM, 25° C., blank 0) of the same molecule?
**A.** 0 mM

**Q.** What about the “Demethylation of syringic acid (in words)” value ([4]; Example 9 conditions) of the same molecule?
**A.** catalyzed the demethylation

**Q.** And the “Demethylation of syringol (in words)” value ([4]; Example 9 conditions)?
**A.** catalyzed the demethylation

**Q.** What about the methanol ([4]; Syringic acid 12 mM, pH 6.5, 10 μM CuSO4, 25° C., blank 0) of the same molecule?
**A.** 4.58 mM

**Q.** And the methanol ([4]; Syringol 12 mM, pH 6.5, 10 μM CuSO4, 25° C., blank 0.06)?
**A.** 5.73 mM

**Q.** And the methanol ([5]; Carboxymodified lignin (corn) 10 g/L, blank 0)?
**A.** 0.35 mM

**Q.** And the methanol ([5]; Carboxymodified lignin (wheat)1 10 g/L, blank 0)?
**A.** 0.31 mM

**Q.** What about the methanol ([5]; Carboxymodified lignin (wheat)2 10 g/L, blank 0) of the same molecule?
**A.** 0.33 mM

**Q.** And the methanol ([5]; Fractionated BioLignin 10 g/L, blank 0.28)?
**A.** 0.46 mM

**Q.** And the methanol ([5]; Lowest MW from lignin fractionation 10 g/L, blank 0.04)?
**A.** 1.43 mM

**Q.** And the methanol ([5]; Purified wheat straw BioLignin 10 g/L, blank 0.05)?
**A.** 0.21 mM

**Q.** What about the “Conversion of substrates (absorbance at 400 nm)” value [6] of the same molecule?
**A.** able to convert syringic acid, sinapic acid and syringol

**Q.** What about the “Activity: total release of non-oxidized and C1-oxidized gluco-oligosaccharides from RAC” value ([7]; reducing agent 3,4-dihydroxy-5-methoxybenzoic acid 2 mM) of the same molecule?
**A.** 22%

**Q.** What about the “Activity: total release of non-oxidized and C1-oxidized gluco-oligosaccharides from RAC” value ([7]; reducing agent 3,4-dihydroxy-5-methoxycinnamic acid 2 mM) of the same molecule?
**A.** 116%

**Q.** What about the “Activity: total release of non-oxidized and C1-oxidized gluco-oligosaccharides from RAC” value ([7]; reducing agent 3,4-dihydroxybenzoic acid 2 mM) of the same molecule?
**A.** 139%

**Q.** What about the “Activity: total release of non-oxidized and C1-oxidized gluco-oligosaccharides from RAC” value ([7]; reducing agent 3-hydroxy-4-methoxycinnamic acid 2 mM) of the same molecule?
**A.** 7558%

**Q.** And the “Activity: total release of non-oxidized and C1-oxidized gluco-oligosaccharides from RAC” value ([7]; reducing agent 3-methylcatechol 2 mM)?
**A.** 104%

**Q.** And the “Activity: total release of non-oxidized and C1-oxidized gluco-oligosaccharides from RAC” value ([7]; reducing agent 4-allyl-2,4-methoxyphenol 2 mM)?
**A.** 108%

**Q.** What about the “Activity: total release of non-oxidized and C1-oxidized gluco-oligosaccharides from RAC” value ([7]; reducing agent 4-hydroxy-3-methoxyphenylactone 2 mM) of the same molecule?
**A.** 131%

**Q.** And the “Activity: total release of non-oxidized and C1-oxidized gluco-oligosaccharides from RAC” value ([7]; reducing agent caffeic acid 2 mM)?
**A.** 122%

**Q.** What about the “Activity: total release of non-oxidized and C1-oxidized gluco-oligosaccharides from RAC” value ([7]; reducing agent coniferyl aldehyde 2 mM) of the same molecule?
**A.** 562%

**Q.** And the “Activity: total release of non-oxidized and C1-oxidized gluco-oligosaccharides from RAC” value ([7]; reducing agent ferulic acid 2 mM)?
**A.** 231%

**Q.** And the “Activity: total release of non-oxidized and C1-oxidized gluco-oligosaccharides from RAC” value ([7]; reducing agent gallic acid 2 mM)?
**A.** 124%

**Q.** What about the “Activity: total release of non-oxidized and C1-oxidized gluco-oligosaccharides from RAC” value ([7]; reducing agent guaiacol 2 mM) of the same molecule?
**A.** 5143%

**Q.** What about the “Activity: total release of non-oxidized and C1-oxidized gluco-oligosaccharides from RAC” value ([7]; reducing agent hesperidin 2 mM) of the same molecule?
**A.** 771%

**Q.** And the “Activity: total release of non-oxidized and C1-oxidized gluco-oligosaccharides from RAC” value ([7]; reducing agent homovanillic acid 2 mM)?
**A.** 580%

**Q.** What about the “Activity: total release of non-oxidized and C1-oxidized gluco-oligosaccharides from RAC” value ([7]; reducing agent vanillic acid 2 mM) of the same molecule?
**A.** 495%
